Test results published in publication PMC8211282, “The bioactivity of soluble Fas ligand is modulated by key amino acids of its stalk region” (PLoS ONE, 2021).

Assays:
[1] = target: T1, wild type soluble Fas ligand (WT-sFasL), long form, amino acids 103 to 281 (human, UniProt P48023 103-281); assay: ELISA; direct binding: wells coated with recombinant human soluble Fas, 5 ug/ml; serial 3-fold dilutions of WT or mut-sFasL, 2 hours; bound sFasL detected with a polyclonal anti-human FasL antibody; conditions: both partners purified
T1 construct: human Fas ligand (FasL, CD178), soluble long form, amino acids 103 to 281 of the 281 amino acid protein; cloned in pSecTag/FRT/V5-His-TOPO with stop codons, so the V5-His tag is not expressed ('native form'); Secreted from the pSecTag vector; the oligomeric state was not measured here; also called wild type sFasL; long form of sFasL
T1 sequence (looked up): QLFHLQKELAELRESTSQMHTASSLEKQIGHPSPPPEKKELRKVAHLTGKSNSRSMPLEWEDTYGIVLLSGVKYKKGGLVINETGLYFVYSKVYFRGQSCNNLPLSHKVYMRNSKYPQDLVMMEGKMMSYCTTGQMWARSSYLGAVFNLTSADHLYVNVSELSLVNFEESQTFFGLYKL

[2] = target: T2, biotinylated wild type soluble Fas ligand (biotinylated WT-sFasL) (human, UniProt P48023 103-281, biotin (EZ-Link Sulfo-NHS-LC-Biotin), sites not stated); assay: ELISA; competition: wells coated with recombinant human soluble Fas (250 ng/ml); biotinylated WT sFasL (70 ng/ml) mixed with serial 3-fold dilutions of WT or 8-site mutated sFasL, 2 hours; biotin detected with HRP-streptavidin; conditions: both partners purified
T2 construct: human Fas ligand (FasL, CD178), soluble long form, amino acids 103 to 281; the same protein as m1, biotinylated after purification; Same construct as m1, chemically biotinylated
T2 sequence (looked up): T1 sequence (looked up)

binding result [1]: binds
binding result [2]: binds
B1: recombinant human soluble Fas receptor (receptor, UniProt P25445 26-173, looked up)
chain: QVTDINSKGLELRKTVTTVETQNLEGLHHDGQFCHKPCPPGERKARDCTVNGDEPDCVPCQEGKEYTDKAHFSSKCRRCRLCDEGHGLEVEINCTRTQNTKCRCKPNFFCNSTVCEHCDPCTKCEHGIIKECTLTSNTKCKEEGSRSN
notes: human Fas (CD95), recombinant soluble receptor from PeproTech; No catalogue number is printed; also called recombinant human Fas; CD95; source: bought: PeproTech
